Ends that are not written are not given here.
T1: hDEP1 Peptide #4 (human, also: conjugated to BSA)
T1 construct: also called hDEP1 Peptide #4/BSA
T1 peptide: ADVLKYTYEDFKKGASDT

T2: hDEP1 Peptide #3 (human, also: conjugated to BSA)
T2 peptide: EVVPKEPALVLKWT

T3: hDEP1 Peptide #1 (human, also: conjugated to BSA)
T3 peptide: AGGTPSPIPDPSV

T4: murine counterpart of hDEP1-ECD-His (murine, UniProt Q64455 524-870)
T4 construct: also called mDEP1
T4 sequence: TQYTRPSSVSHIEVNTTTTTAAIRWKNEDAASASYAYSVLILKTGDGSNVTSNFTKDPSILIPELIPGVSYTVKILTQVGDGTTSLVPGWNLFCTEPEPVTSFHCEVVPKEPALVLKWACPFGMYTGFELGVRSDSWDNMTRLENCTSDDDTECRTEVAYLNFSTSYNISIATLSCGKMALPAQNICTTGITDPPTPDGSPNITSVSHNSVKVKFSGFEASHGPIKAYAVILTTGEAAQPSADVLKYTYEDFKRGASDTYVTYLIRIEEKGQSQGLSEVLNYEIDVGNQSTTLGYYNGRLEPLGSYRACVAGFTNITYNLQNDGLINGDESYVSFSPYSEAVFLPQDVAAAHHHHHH

T5: hDEP1-ECD-His (human, UniProt Q12913 621-969)
T5 construct: Produced in CHO cells, purified on Ni-NTA; also called recombinant protein hDEP1-ECD-His
T5 sequence: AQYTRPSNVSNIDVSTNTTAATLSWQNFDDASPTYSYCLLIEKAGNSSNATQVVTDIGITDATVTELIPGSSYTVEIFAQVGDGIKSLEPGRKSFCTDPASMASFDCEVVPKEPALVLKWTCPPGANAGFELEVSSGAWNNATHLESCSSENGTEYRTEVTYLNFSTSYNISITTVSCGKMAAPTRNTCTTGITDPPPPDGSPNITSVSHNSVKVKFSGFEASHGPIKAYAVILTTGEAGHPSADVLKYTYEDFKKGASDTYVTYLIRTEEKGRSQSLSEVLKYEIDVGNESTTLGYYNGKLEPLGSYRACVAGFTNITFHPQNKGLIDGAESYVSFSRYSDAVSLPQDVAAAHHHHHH

T6: hDEP1 Peptide #2 (human, also: conjugated to BSA)
T6 peptide: PVLGDIEGTPGFLQVHT

B1: 5738-10-R4A-G12 (scFv, V domains shown)
VH: QVQLKESGAELAKPGSSVKISCKASGYTFTSDSISWIKQTTGQGLEYIGYIHPGSGVTNYNEKFKGKATLTVDKSSSTAFMQLSSLTPDDSAIYYCARYFDYWGQGVMVTVSS
VL: DILMTQSPSSMSVSLGDTVTITCRASQDVGIYVNWFQQKPGKSPRRMIYRATNLADGVPSRFSGSRSGSDYSLTISSLESEDVADYHCLQYDEYPPTFGGGTKLELK
notes: anti-hDEP1 scFv, rat 10 library, format VH/VL-6xHis-Flag
B2: 5738-13-R4A-D11 (scFv, V domains shown)
VH: QVQLKESGGGLVQPGRSLKLSCAASGFSFGDYNMAWVRQAPKKGLEWVATISYDDYRTYYRDSVKGRFTISRDDAKATLYLQMDSLRSEDTATYYCARQGGIIRGVWFPYWGQGTLVTVSS
VL: DIQMTQTPASLSASLEEIVTITCQASQDIGNWLAWYQQKPGKSPHLLIYGATTLADGVPSRFSGSRSGTQYSLKISRLQAEDIGIYYCQQASSAPWTFGGGTKLELK
notes: anti-hDEP1 scFv, rat 13 library, format VH/VL-6xHis-Flag

What was measured:
hDEP1 Peptide #4 [1] = molecular target: T1, hDEP1 Peptide #4; assay: ELISA, soluble scFv produced in microtiter plate
Experimental: 96 isolated clones from the second, third and fourth rounds of panning were hand-picked and used to produce the respective soluble scFv in microtiter plate. Each clone was then tested in ELISA against hDEP1 Peptide #4/BSA.

hDEP1 Peptide #3 = molecular target: T2, hDEP1 Peptide #3; assay: indirect ELISA, purified soluble scFv
hDEP1 Peptide #1 = molecular target: T3, hDEP1 Peptide #1; assay: indirect ELISA, purified soluble scFv
[2] = molecular target: T4, murine counterpart of hDEP1-ECD-His; assay: indirect ELISA, purified soluble scFv
BSA = molecular target: T7, BSA (UniProt P02769 25-607); assay: indirect ELISA, purified soluble scFv
T7 construct: Negative control antigen in the ELISAs; also called negative control (BSA only)

hDEP1-ECD-His = molecular target: T5, hDEP1-ECD-His; assay: indirect ELISA, purified soluble scFv
hDEP1 Peptide #2 = molecular target: T6, hDEP1 Peptide #2; assay: indirect ELISA, purified soluble scFv
hDEP1 Peptide #4 [3] = molecular target: T1, hDEP1 Peptide #4; assay: indirect ELISA, purified soluble scFv

T7 sequence (P02769 25-607 limits assumed): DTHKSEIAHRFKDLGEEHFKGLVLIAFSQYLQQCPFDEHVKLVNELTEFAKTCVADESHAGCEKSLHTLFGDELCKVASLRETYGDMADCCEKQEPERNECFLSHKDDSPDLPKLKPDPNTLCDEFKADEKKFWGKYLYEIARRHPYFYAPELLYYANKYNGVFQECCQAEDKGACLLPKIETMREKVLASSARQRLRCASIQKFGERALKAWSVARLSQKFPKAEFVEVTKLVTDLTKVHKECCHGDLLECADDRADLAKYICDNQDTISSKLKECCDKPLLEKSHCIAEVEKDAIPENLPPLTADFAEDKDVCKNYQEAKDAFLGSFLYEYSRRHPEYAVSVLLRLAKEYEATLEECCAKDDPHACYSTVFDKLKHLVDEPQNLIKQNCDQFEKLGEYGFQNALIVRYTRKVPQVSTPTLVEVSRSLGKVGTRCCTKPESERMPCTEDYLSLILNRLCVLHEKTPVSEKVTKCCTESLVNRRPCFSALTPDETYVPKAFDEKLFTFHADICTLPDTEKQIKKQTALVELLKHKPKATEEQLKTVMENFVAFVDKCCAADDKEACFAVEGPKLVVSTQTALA

Row | Binder | binding result (hDEP1 Peptide #4 [1]) | binding result (hDEP1 Peptide #3) | binding result (hDEP1 Peptide #1) | binding result [2] | binding result (BSA) | binding result (hDEP1-ECD-His) | binding result (hDEP1 Peptide #2) | binding result (hDEP1 Peptide #4 [3])
1 | B1 | binds | no binding | no binding | no binding | no binding | binds | no binding | 
2 | B2 |  | no binding | no binding | no binding | no binding |  | no binding | no binding

Source: US20240009242A1 (STARKAGE THERAPEUTICS, published 2024)
